Biological target: T1, CD28-Fc-His protein (human, UniProt P10747 19-152)
T1 construct: Captured on anti-HIS (HIS1K) biosensors; also called CD28 antigen; not shown: Fc; His tag
Experiment: Octet (BLI), CD28-Fc-His on HIS1K biosensors, 1:1 Langmuir and steady state fits
From the text: To investigate whether the difference observed for XENP34339 resulted from the difference in B7H3 binding domain or the difference in bispecific antibody format, the component binding domains of XENP34339 and XENP34389 were biophysically characterized using Octet. […] Anti-mouse Fc biosensors were used to capture mouse Fc fusions of B7H3, either the full extracellular V1C1-[…] domain or the individual V1C1 or V2C2 domains, and dipped into multiple concentrations of XENP34717 or XENP34728. Kinetic analyses were performed by global fitting of binding data with a 1:1 Langmuir binding model. […] Next, the binding affinities of the CD28 binding domains for CD28 antigen in the 2+1 CLC format and the 2+1 Fab2-scFv-Fc format was investigated. Anti-HIS capture (HIS1K) biosensors were used to capture CD28-Fc-His protein and dipped into multiple concentrations of XENP34339 or XENP34389. Kinetic analyses were performed by global fitting of binding data with a 1:1 Langmuir binding model as well as steady state model. The resulting dissociation constant (KD) are depicted in FIG. 53.

- binding result: binds
B1: XENP34389 (bispecific antibody)
heavy 1: EVQLLESGGGLVQPGGSLRLSCAASGFTFSNYYMAWVRQAPGKGLEWVSSISTGGGSTYYRDSVKGRFTISRDNSKSTLYLQMNSLRAEDTAVYYCTTDLSAIAATPFAYWGQGTLVTVSSASTKGPSVFPLAPSSKSTSGGTAALGCLVKDYFPEPVTVSWNSGALTSGVHTFPAVLQSSGLYSLSSVVTVPSSSLGTQTYICNVNHKPSDTKVDKKVEPKSCDKTHTCPPCPAPPVAGPSVFLFPPKPKDTLMISRTPEVTCVVVDVKHEDPEVKFNWYVDGVEVHNAKTKPREEEYNSTYRVVSVLTVLHQDWLNGKEYKCKVSNKALPAPIEKTISKAKGQPREPQVYTLPPSREEMTKNQVSLTCDVSGFYPSDIAVEWESDGQPENNYKTTPPVLDSDGSFFLYSKLTVDKSRWEQGDVFSCSVMHEALHNHYTQKSLSLSPGK
heavy 2: not shown
light: DIQMTQSPSSLSASVGDRVTITCRASQNIYTSLAWYQQKPGKAPKLLIYNAHSLQTGIPSRFSGSGSGADFTLTISSLQPEDFATYFCQQYYSGLTFGSGTKLEIKRTVAAPSVFIFPPSDEQLKSGTASVVCLLNNFYPREAKVQWKVDNALQSGNSQESVTEQDSKDSTYSLSSTLTLSKADYEKHKVYACEVTHQGLSSPVTKSFNRGEC
notes: 2+1 Fab2-scFv-Fc; also called B7H3 x CD28 in 2+1 Fab2-scFv-Fc format; copies: 1 + 1 + 2

From US20220098306A1 (Xencor, published 2022)
